We go through one substance from US20050106100A1, “Compounds containing matrix metalloproteinase substrates and methods of their use” (priority 2003, published 2005).

Some results are limits rather than exact numbers.

Data set [1] has as its system CC(=O)N1CCC[C@H]1C(=O)N[C@@H](CCCN)C(=O)NCC(=O)N[C@@H](CCc1ccccc1)C(=O)N[C@@H](CC(C)C)C(=O)NNC(=O)c1ccc(N/N=C/c2ccccc2S(=O)(=O)O)nc1. In words: Kinetic measurements of substrate hydrolysis by active MMP-9 (radio HPLC assay). The data set is classed as biochemical, human. As to conditions: other: active MMP-9 final concentration 2 nM, 37° C., 60 minutes, radiolabeled test substrate, pH 7.5.
Procedure: (§1) Purified MMP-2 (10 μg) or MMP-9 (10 μg) were reconstituted in 100 μL of TCN buffer. […] Pro-MMP-2 was activated by incubation with 2 nM APMA for 2 hours at 37° C. At the end of incubation 100 μl of 100% glycerol was added to active MMP-2 and active MMP-9 (final concentration 50% glycerol). Active MMP-2 and active MMP-9 were aliquoted and stored at −20° C.
(§2) The level of active protease was always quantified by active site titration studies prior to kinetic studies. The active site of MMP-9 and MMP-2 was titrated using the GM6001 dissolved in 100% DMSO at a stock concentration of 2.5 mM. Dilutions (1:2) of GM6001 were prepared in TCN buffer to give a final concentration of 5 nM to 0.04 nM GM6001 in the active site titration assay. Activated MMP-2 or activated MMP-9 (2 nM) was preincubated with increasing concentrations of GM60001 at 37° C. for 15 minutes in 96 well black microtiter plates. […] Plates were read on fluorescence spectrophotometer at excitation wavelength of 320 nm and emission wavelength of 395 nm. The concentration of the active enzyme was determined using the Morrison equation and Kaleidagraph software (Reading, Pa.).
(§3) The kinetic parameters of substrate hydrolysis were determined using a radio HPLC assay. The turnover of different substrates by active MMP-2 and active MMP-9 was determined using this assay. […] The radiolabel was detected by a IN/US beta ram detector. […]

For data set [2], the system named is CC(=O)N1CCC[C@H]1C(=O)N[C@@H](CC(C)C)C(=O)NCC(=O)N[C@@H](CCc1ccccc1)C(=O)N[C@@H](Cc1ccc(O)cc1)C(=O)N[C@@H](CC(C)C)C(=O)NNC(=O)c1ccc(N/N=C/c2ccccc2S(=O)(=O)ON)nc1. The data set is described as above. The data set is classed as biochemical, human. As to conditions: other: active MMP-9 final concentration 2 nM, 37° C., 60 minutes, radiolabeled test substrate, pH 7.5.
Procedure: as §1, §2, §3

MMP-9 (Homo sapiens), sequence (chain, as listed by the source): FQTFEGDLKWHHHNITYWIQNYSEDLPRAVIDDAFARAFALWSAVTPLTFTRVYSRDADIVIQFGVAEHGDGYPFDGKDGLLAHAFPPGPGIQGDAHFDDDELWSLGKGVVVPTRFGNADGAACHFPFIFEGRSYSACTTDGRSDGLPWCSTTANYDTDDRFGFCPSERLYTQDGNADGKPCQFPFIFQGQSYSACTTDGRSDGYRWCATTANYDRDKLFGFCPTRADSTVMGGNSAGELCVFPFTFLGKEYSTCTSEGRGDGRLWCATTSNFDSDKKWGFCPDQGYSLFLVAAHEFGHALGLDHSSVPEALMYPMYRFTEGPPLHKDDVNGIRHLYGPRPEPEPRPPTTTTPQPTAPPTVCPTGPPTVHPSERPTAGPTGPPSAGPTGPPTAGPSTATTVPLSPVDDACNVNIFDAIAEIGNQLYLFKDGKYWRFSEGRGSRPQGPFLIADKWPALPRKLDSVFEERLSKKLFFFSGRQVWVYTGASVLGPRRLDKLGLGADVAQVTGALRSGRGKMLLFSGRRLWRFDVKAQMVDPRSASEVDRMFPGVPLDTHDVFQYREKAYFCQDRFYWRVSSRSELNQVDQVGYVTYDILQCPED

On to MMP-9 (Homo sapiens), for which the kcat/Km in data set [1] is 4450 M⁻¹ s⁻¹; in data set [2], over 100000 M⁻¹ s⁻¹.
